Values joined by “and” are separate entries in the source; they are usually repeats but may differ in a detail not shown here. Equal values may be shown once.
Experiments:
[1] = target: the molecule itself; assay: not stated; in solution; the method is not named for this construct (the constructs were purified on an S200 16/60-increase column)
[2] = target: the molecule itself; assay: SEC; S200 16/60-increase column, 10 mM HEPES (pH 8.0), 150 mM NaCl, after anion-exchange chromatography; size of the oligomer from the elution volume

Protein | stoichiometry N [1] | stoichiometry N [2]
σNS-ΔN17 (σNS lacking the N-terminal 17 residues) (domain or fragment, σNS nonstructural protein of mammalian orthoreovirus, strain type 3 Dearing, truncated by the N-terminal 17 residues; synthesized gene in pET28; Dimer in solution and in the crystal; source: E. coli DE3 cells, purified (Ni-NTA, TEV cleavage, Q column, S200 SEC); not shown: His tag, N-terminal, cleaved) GQQVCPNYVMLRSSVTTKVVRNVVEYQIRTGGFFSCLAMLRPLQYAKRERLLGQRNLERISTRDILQTRDLHSLCMPTPDAPMSNHQASTMRELICSYFKVDHADGLKYIPMDERYSPSSLARLFTMGMAGLHITTEPSYKRVPIMHLAADLDCMTLALPYMITLDGDTVVPVAPTLSAEQLLDDGLKGLACMDISYGCEVDANSRPAGDQSMDSSRCINELYCEETAEAICVLKTCLVLNCMQFKLEMDDLAHNAAELDKIQMMIPFSERVFRMASSFATIDAQCFRFCVMMKDKNLKIDMRETTRLWTRSASDDSVATSSLSISLDRGRWVAADASDARLLVFPIRV | 2 | 
wildtype (WT) σNS (mammalian orthoreovirus, strain type 3 Dearing) (natural protein, σNS nonstructural protein of mammalian orthoreovirus, strain type 3 Dearing; synthesized gene in pET28; source: E. coli DE3 cells, purified (Ni-NTA, TEV cleavage, Q column, S200 SEC); not shown: His tag, N-terminal, cleaved) MASSLRAAISKIKRDDVGQQVCPNYVMLRSSVTTKVVRNVVEYQIRTGGFFSCLAMLRPLQYAKRERLLGQRNLERISTRDILQTRDLHSLCMPTPDAPMSNHQASTMRELICSYFKVDHADGLKYIPMDERYSPSSLARLFTMGMAGLHITTEPSYKRVPIMHLAADLDCMTLALPYMITLDGDTVVPVAPTLSAEQLLDDGLKGLACMDISYGCEVDANSRPAGDQSMDSSRCINELYCEETAEAICVLKTCLVLNCMQFKLEMDDLAHNAAELDKIQMMIPFSERVFRMASSFATIDAQCFRFCVMMKDKNLKIDMRETTRLWTRSASDDSVATSSLSISLDRGRWVAADASDARLLVFPIRV |  | 10 and 8
selenomethionine (Se-Met)-substituted σNS-R6A (natural protein, selenomethionine in place of methionine (Se-Met-substituted; Mse 1 named), σNS nonstructural protein of mammalian orthoreovirus, strain type 3 Dearing, with R6A; synthesized gene in pET28; Octamer by SEC; helical assembly of dimers in the crystal; Residue 1 (Mse 1) is seen in the structure; also called Se-Met σNS-R6A; source: E. coli B834 cells in medium with Se-Met, purified (Ni-NTA, TEV cleavage, Q column, S200 SEC); not shown: His tag, N-terminal, cleaved) MASSLAAAISKIKRDDVGQQVCPNYVMLRSSVTTKVVRNVVEYQIRTGGFFSCLAMLRPLQYAKRERLLGQRNLERISTRDILQTRDLHSLCMPTPDAPMSNHQASTMRELICSYFKVDHADGLKYIPMDERYSPSSLARLFTMGMAGLHITTEPSYKRVPIMHLAADLDCMTLALPYMITLDGDTVVPVAPTLSAEQLLDDGLKGLACMDISYGCEVDANSRPAGDQSMDSSRCINELYCEETAEAICVLKTCLVLNCMQFKLEMDDLAHNAAELDKIQMMIPFSERVFRMASSFATIDAQCFRFCVMMKDKNLKIDMRETTRLWTRSASDDSVATSSLSISLDRGRWVAADASDARLLVFPIRV |  | 8
σNS-R6A (native, without Se-Met substitution) (natural protein, σNS nonstructural protein of mammalian orthoreovirus, strain type 3 Dearing, with R6A; synthesized gene in pET28; Dimer in solution (~80 kDa); The N-terminal arm is disordered in the crystal with bile acid derivatives; also called native σNS-R6A; σNS R6A mutant; source: E. coli DE3 cells, purified (Ni-NTA, TEV cleavage, Q column, S200 SEC); not shown: His tag, N-terminal, cleaved) MASSLAAAISKIKRDDVGQQVCPNYVMLRSSVTTKVVRNVVEYQIRTGGFFSCLAMLRPLQYAKRERLLGQRNLERISTRDILQTRDLHSLCMPTPDAPMSNHQASTMRELICSYFKVDHADGLKYIPMDERYSPSSLARLFTMGMAGLHITTEPSYKRVPIMHLAADLDCMTLALPYMITLDGDTVVPVAPTLSAEQLLDDGLKGLACMDISYGCEVDANSRPAGDQSMDSSRCINELYCEETAEAICVLKTCLVLNCMQFKLEMDDLAHNAAELDKIQMMIPFSERVFRMASSFATIDAQCFRFCVMMKDKNLKIDMRETTRLWTRSASDDSVATSSLSISLDRGRWVAADASDARLLVFPIRV |  | 2
